From patent publication US20210198377A1 (XDCEXPLORER SHANGHAI, published 2021)
Changes are numbered by the printed parent chain.

T1: cynomolgus monkey TPBG (full length, on cells) (cynomolgus monkey, UniProt Q4R8Y9 35-420)
T1 construct: whole, on cells; On transfected CHO-K1 cells; also called cTPBG; CHO-K1-cTPBG
T1 sequence (looked up): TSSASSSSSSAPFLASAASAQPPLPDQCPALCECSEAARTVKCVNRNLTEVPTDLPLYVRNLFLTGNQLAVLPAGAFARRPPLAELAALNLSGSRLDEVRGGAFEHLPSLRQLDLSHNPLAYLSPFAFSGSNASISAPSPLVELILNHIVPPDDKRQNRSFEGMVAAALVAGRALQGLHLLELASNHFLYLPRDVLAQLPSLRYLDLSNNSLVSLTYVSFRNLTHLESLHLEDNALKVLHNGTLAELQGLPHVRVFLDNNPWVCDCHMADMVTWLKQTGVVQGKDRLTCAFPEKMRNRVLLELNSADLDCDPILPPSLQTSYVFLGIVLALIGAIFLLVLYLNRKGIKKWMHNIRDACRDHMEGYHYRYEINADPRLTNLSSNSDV

T2: human TPBG-hFc (human, UniProt Q13641 32-355)
T2 construct: also called immunogen A; hFc tagged TPBG protein; not shown: The human IgG Fc fragment of the pCpC vector (Invitrogen V044-50) and any linker to it
T2 sequence: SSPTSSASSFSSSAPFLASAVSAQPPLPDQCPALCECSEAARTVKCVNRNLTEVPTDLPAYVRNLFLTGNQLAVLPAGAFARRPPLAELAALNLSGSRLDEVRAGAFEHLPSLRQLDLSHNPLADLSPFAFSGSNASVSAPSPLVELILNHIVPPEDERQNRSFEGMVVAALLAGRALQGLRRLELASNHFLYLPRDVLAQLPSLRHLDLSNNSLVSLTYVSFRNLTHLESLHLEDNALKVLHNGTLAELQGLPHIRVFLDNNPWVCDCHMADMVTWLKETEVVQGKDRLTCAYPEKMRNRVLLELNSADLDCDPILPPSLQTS

B1: 12B12C7C3 (antibody, V domains shown)
VH: DVQLVESGGGLVQPGGSRKLSCAASGFTFSNFGMHWVRQAPEKGLEWVAYISSGSTSFYYADTVKGRFTISRDNPKNTLFLQMTSLRSEDTAMYYCSRTNSLLRGFFDAWGAGTTVTVSS
VL: DIVLTQSPASLAVSLGQRATISCRASQSVSSSSYTYLHWYQQKPGQPPKLLIKSASNLESGVPARFSGTGSGTDFTLNIHPVEEEDTATYYCQHSWEIPLTFGAGTKLELK
notes: Mouse hybridoma antibody purified from culture supernatant; also called TPBG antibody; lead antibody
B2: 36A10D8B12 (antibody, V domains shown)
VH: DVQLQESGPGMVKPSQSLSLTCTVTGYSITSGYDWHWIRHFPGNKLEWMGYISYSGNTNYNPSLKSRISITHNTSKNHFFLRLNSVTTEDTATYYCARGYGNWDAMDYWGQGTSVTVSS
VL: DIVMTQSQKFMSTSVGDRVSVTCKASQIVDTNVAWYQQKPGQSPKALISSASYRYSGVPDRFTGSGSGTDFTLTISNVQSEDLAEYFCQQYNSYPLTFGAGTKLELT
notes: as for B1
B3: 99E12C7H1 (antibody, V domains shown)
VH: QIQLVQSGPELKKPGETVKISCKPSGYTFTAYGLSWVKQAPGQGFQWMGWINTYSGVPTYTDDFKGRFAFSLETSAGTASLQITNLKNEDTATYFCARSSIPPFEYWGPGTTLTVSS
VL: SFVMTQSPKFLLVSVGDRVTITCKASQSVSNDVAWYQQKPGQPPRVLIYFASNRYTGVPDRFTGSGYGTDFTFTISTVQAEDLALYFCQQDYSSPWTFGGGTKLEIK
notes: as for B1
B4: 103E2E9C2 (antibody, V domains shown)
VH: EVQLQQSGPVLVKPGASVKMSCEASGYSFIDYYMSWVKQSRGRSLEWIGVFNPYSGEIIYNQKFKGKATLTVDKSSSTAYMELSSLTSEDSGVYSCARLRISYYAIDYWGQGTSVAVSS
VL: ENVLTQSPAIMSASPGEKVTMTCRATSSVSSGHFHWYQQKSGASPKVWIYSTSNLASGVPARFSGSGSGTSFSLTISSVEAEDVATYFCQQYSGYPLTFGGGTKLEIK
notes: as for B1
B5: 39A11G5F2 (antibody, V domains shown)
VH: QVQLQQSGAELMKPGASMRLSCKATGYTFTGYWLEWIKRRPGHGLEWIGEILPGRGSTNYNEKFKGKATFTAETSSNTAYMQLTSLTTEDSAIYYCARGGRDFDNWGQGTTLTVSS
VL: DIQMTQSTSSLSASLGDRVTISCSASQGINNHLNWYQQKPDGTVKLLIYYTSSLHSGVPSRFSGSGSGTDYSLTISNLEPEDIAIYYCQQFSKLPYTFGGGTKVEMK
notes: as for B1
B6: 52C9E9F6 (antibody, V domains shown)
VH: QVQLQQSGAELMKPGASVKLSCKATGYTFTGYWIEWIKQRPGHGLEWIGEILPGRGSTDYNEKFKGKATFTADTSSNTAYMQLSSLTTEDSAIYYCTRGRLDFTYWGQGTLVTVSA
VL: B5 VL with S7T, N30R, H32Y, I85T, F91Y, L94V, Y96W, V104L, M106I
notes: as for B1
B7: 37H9C5G2 (antibody, V domains shown)
VH: QVQLQQSDAELVRPGASVKMSCKVSGYTFTDHTIHWMKQRPEQGLEWIGYIYPRDGSGTYNEKFKGKATLTADKSSSTAYMQLNSLTSEDSAVYFCARDGSSHYWYFDVWGTGTTVTVSS
VL: DIQMTQSPASLSASVGETVTITCRASEIIYNYLAWYQQKQGKSPQLLVYNAKTLAEGVPSRFSGSYSGTQFSLNINSLQSEDFGIYYCQHHHDTPLTFGAGTKLDLK
notes: as for B1
B8: 5G4H10G5 (antibody, V domains shown)
VH: EVQLVESGGDLVQPGGSLKLFCAASGFTFSTYGLSWVRQTPDKRLELVATITNNDGSAYYPDSVKGRFTISRDKAKNTLFLQMTSLKSEDTAMYYCARETGFGSSYLFDYWGQGTLVTVSA
VL: NIVMTQTPKFLLVSAGDRVTITCKASQSVSNDVAWYQQKPGQSPKLLIYFATNRYTGVPNRFTGSGYGTEFTFTISSVQAEDLAVYFCQQDYSSPTFGGGTKLEIK
notes: as for B1
B9: 28D4E6A9 (antibody, V domains shown)
VH: DVQLVESGGGLVRPGGSLKLSCAASGFTFSNYVMSWARQSPEKRLEWVAEISTGGSHTYYSDTVTGRFTISRDNAKKALYLEMSSLRSEDTAIYYCIMFYYGSSYSMDYWGQGTSVTVSS
VL: DIQMTQSTSSLSASLGDRITISCRASQDIRNYLNWYQQKPDGTVKLLIYHTSRLHSGVPSRFSGSGSGTDYSLTISNLEQEDIATYFCQQGDTLPLTFGAGTRLELK
notes: as for B1
B10: 106D5G3D10 (antibody, V domains shown)
VH: EVQLVESGGGLVKPGGSLKLSCAASGFTFSDYGMHWVRQAPEKGLEWVGYISSGTYVVYYADTVKGRFTISRDNAKNTLFLQMTSLRSEDTAIYYCSTYGSNPFDYWGQGTTLTVSS
VL: QLVLTQSPAIMSASPGEKVTITCSATSSVSSMHWFQQKPVTSPKLWIYSTSNLASGVPTRFSGSGSGTSYSLTISRMEAEDAATYYCQQRSGYPPIFTFGSGTKLEIK
notes: as for B1

Target: T1, cynomolgus monkey TPBG (full length, on …)
Test: FACS on CHO-K1-cTPBG cells
Text: The stable cell lines CHO-k1-hTPBG, CHO-k1-cTPBG, CHO-k1-mTPBG (i.e. the CHO-k1-hTPBG 3A2F1, CHO-k1-cTPBG 3F13G4 and CHO-k1-mTPBG 3A3 shown in table 7) and CHO-K1 cells were expanded to a 90% of confluency in T-75 cell culture flasks, the culture medium were removed, and cells were then rinsed twice with HBSS buffer (Hanks Balanced Salt Solution, purchased from Invitrogen) and lysed with enzyme-free cell dissociation buffer (Versene solution purchased from Life technology) and harvested. Harvested cells were rinsed with HBSS buffer twice and counted before diluting with HBSS buffer to 2×10⁶ cells /mL, and 10% goat serum blocking buffer was then added, wherein the percentage is the mass percentage. Cells were incubated on ice for 30 min, and then washed twice with HBSS buffer by centrifugation. The harvested cells were resuspended with FACS buffer (HBSS+1% BSA, wherein the percentage is mass percentage) to a concentration of 2×10⁶ cells /mL. 100 μL per well of the cells was aliquoted to 96-well FACS reaction plates, and 100 μL per well of test sample—the purified TPBG antibody obtaining from Embodiment 2 was added before incubating on ice for 2 h. The plate was washed with the FACS buffer twice by centrifugation, and 100 μL per well of fluorescence (Alexa 488) labeled secondary antibody (purchased from Invitrogen) was then added and incubated on ice for 1 h. The plate was washed with the FACS buffer for three times by centrifugation, follow by resuspending in 100 μL of fixation buffer (4% (v/v) paraformaldehyde). Cells were washed with FACS buffer twice after 10 min, follow by resuspending with 100 μL of FACS buffer. The results were measured and analyzed by FACS (FACS Calibur, purchased from BD). Data analysis was performed by software (CellQuest) to obtain mean fluorescence intensity (MFI) of the cells, follow by calculating EC50 value by software (GraphPad Prism) analysis and data fitting. The analysis results were shown in Table 8 and FIGS. 7-10, and data in FIGS. 7-10 show the mean fluorescence intensity (MFI) of cells.

EC50 | Binder
0.59 nM | B1
0.6 nM | B2
2.29 nM | B3
0.83 nM | B4
1.35 nM | B5
1.54 nM | B6
0.62 nM | B7
0.84 nM | B8
0.25 nM | B9
1.26 nM | B10

Target: T2, human TPBG-hFc
Test: ELISA, coated human TPBG-hFc 1.0 ug/mL; antibody 200 nM
Description: (§1) The purified immunogen A (as for its method of preparation please refer to step 1 in Example 1) diluting with PBS to a final concentration of 1.0 μg/mL was aliquoted into a 96-well ELISA plate at 100 μL per well, and sealed with a parafilm and incubated at 4° C. overnight. The plate was washed twice with plate washing buffer (PBS containing 0.01% (v/v) Tween 20), and blocked with blocking buffer (PBS containing 0.01% (v/v) Tween 20 and 1% (w/w) BSA) at room temperature for 2 h. The blocking buffer was discarded, and 100 μL per well of the purified antibody obtained from Embodiment 2 was added. After incubating at 37° C. for 2 h, the plate was washed for three times with plate washing buffer (PBS containing 0.01% (v/v) Tween 20). HRP (horseradish peroxidase)-labeled secondary antibody (purchased from Sigma) was added and incubated at 37° C. for 2 h, and the plate was washed for three times using plate washing buffer (PBS containing 0.01% (v/v) Tween 20). 100 μL of TMB substrate was aliquoted into each well, incubated at room temperature for 30 min, and 100 μL of stop buffer (1.0N HCl) per well was subsequently added. A₄₅₀ₙₘ values were read using the ELISA plate reader (SpectraMax 384plus purchased from Molecular Device), and the results were shown in FIG. 6 and table 6. […] In Table 6 the IgG control herein is a mice IgG control, the data in the Table are OD₄₅₀ₘₙ values, and Blank means the OD₄₅₀ₘₙ value when there is only PBS buffer in the plate.

OD450nm | Binder
2.82 OD450nm | B1
2.51 OD450nm | B2
2.93 OD450nm | B3
2.6 OD450nm | B4
2.55 OD450nm | B5
2.65 OD450nm | B6
2.61 OD450nm | B7
2.72 OD450nm | B8
2.6 OD450nm | B9
2.88 OD450nm | B10

Target: T2, human TPBG-hFc
Test: ELISA, coated human TPBG-hFc 1.0 ug/mL; antibody 0.02 nM
Description: as §1

OD450nm | Binder
0.29 OD450nm | B1
0.51 OD450nm | B2
0.78 OD450nm | B3
0.48 OD450nm | B4
0.3 OD450nm | B5
0.27 OD450nm | B6
0.35 OD450nm | B7
0.34 OD450nm | B8
0.46 OD450nm | B9
0.56 OD450nm | B10

Target: T2, human TPBG-hFc
Test: ELISA, coated human TPBG-hFc 1.0 ug/mL; antibody 0.002 nM
Description: as §1

OD450nm | Binder
0.13 OD450nm | B1
0.18 OD450nm | B2
0.21 OD450nm | B3
0.14 OD450nm | B4
0.11 OD450nm | B5
0.12 OD450nm | B6
0.11 OD450nm | B7
0.1 OD450nm | B8
0.14 OD450nm | B9
0.16 OD450nm | B10
